B1: M. smegmatis ATP synthase subunit β with C-terminal 3×FLAG tag (natural protein)
chain: MTATAEKTAGRVVRITGPVVDVEFPRGSVPELFNALHAEITFGALAKTLTLEVAQHLGDSLVRCISMQPTDGLVRGVEVTDTGASISVPVGDGVKGHVFNALGDCLDDPGYGKDFEHWSIHRKPPAFSDLEPRTEMLETGLKVVDLLTPYVRGGKIALFGGAGVGKTVLIQEMINRIARNFGGTSVFAGVGERTREGNDLWVELADANVLKDTALVFGQMDEPPGTRMRVALSALTMAEFFRDEQGQDVLLFIDNIFRFTQAGSEVSTLLGRMPSAVGYQPTLADEMGELQERITSTRGRSITSMQAVYVPADDYTDPAPATTFAHLDATTELSRAVFSKGIFPAVDPLASSSTILDPAIVGDEHYRVAQEVIRILQRYKDLQDIIAILGIDELSEEDKQLVNRARRIERFLSQNMMAAEQFTGQPGSTVPLKETIEAFDKLTKGEFDHLPEQAFFLIGGLDDLAKKAESLGAKL
B2: M. smegmatis ATP synthase subunit b-δ (b-δ fusion protein) (natural protein)
chain: MSIFIGQLIGFAVIAFIIVKWVVPPVRTLMRNQQEAVRAALAESAEAAKKLADADAMHAKALADAKAESEKVTEEAKQDSERIAAQLSEQAGSEAERIKAQGAQQIQLMRQQLIRQLRTGLGAEAVNKAAEIVRAHVADPQAQSATVDRFLSELEQMAPSSVVIDTAATSRLRAASRQSLAALVEKFDSVAGGLDADGLTNLADELASVAKLLLSETALNKHLAEPTDDSAPKVRLLERLLSDKVSATTLDLLRTAVSNRWSTESNLIDAVEHTARLALLKRAEIAGEVDEVEEQLFRFGRVLDAEPRLSALLSDYTTPAEGRVALLDKALTGRPGVNQTAAALLSQTVGLLRGERADEAVIDLAELAVSRRGEVVAHVSAAAELSDAQRTRLTEVLSRIYGRPVSVQLHVDPELLGGLSITVGDEVIDGSIASRLAAAQTGLPD
B3: M. smegmatis ATP synthase subunit a (natural protein)
chain: MLAAEEGGAAIHVGHHTLVFELFGMTFNGDTILATAVTAVIVIALAFYLRAKVTSTGVPSGVQLFWEALTIQMRQQIEGSIGMKIAPFVLPLSVTIFVFILISNWLAVLPLQYGGADGAAAELYKAPASDINFVLALALFVFVCYHAAGIWRRGIVGHPIKVVKGHVAFLAPINIVEELAKPISLALRLFGNIFAGGILVALIAMFPWYIQWFPNAVWKTFDLFVGLIQAFIFSLLTILYFSQSMELDHEDH

Assays:
Test in all cases: cryo-EM structure
[1] = biological target: B1
cryo-EM structure = biological target: the molecule itself
[2] = biological target: B3
[3] = biological target: M. smegmatis ATP synthase subunit α (M. smegmatis, UniProt A0R202 1-548)
[4] = biological target: B2

Sequence of M. smegmatis ATP synthase subunit α (A0R202 whole entry): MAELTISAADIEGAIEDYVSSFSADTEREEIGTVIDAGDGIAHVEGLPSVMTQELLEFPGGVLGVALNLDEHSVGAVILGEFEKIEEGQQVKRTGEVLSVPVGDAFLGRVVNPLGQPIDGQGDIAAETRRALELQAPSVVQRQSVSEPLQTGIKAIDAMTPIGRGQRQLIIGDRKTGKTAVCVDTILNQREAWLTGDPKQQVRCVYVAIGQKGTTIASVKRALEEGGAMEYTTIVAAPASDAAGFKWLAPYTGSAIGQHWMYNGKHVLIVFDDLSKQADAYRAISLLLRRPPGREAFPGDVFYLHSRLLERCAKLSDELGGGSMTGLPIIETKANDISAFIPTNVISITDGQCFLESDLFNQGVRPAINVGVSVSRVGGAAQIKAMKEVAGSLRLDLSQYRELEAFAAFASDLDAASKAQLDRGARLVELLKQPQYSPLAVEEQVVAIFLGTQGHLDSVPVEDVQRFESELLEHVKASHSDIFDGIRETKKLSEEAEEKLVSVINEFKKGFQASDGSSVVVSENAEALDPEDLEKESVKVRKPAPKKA

Binder	binding result [1]	stoichiometry N (cryo-EM structure)	binding result [2]	binding result [3]	binding result [4]
M. smegmatis ATP synthase subunit c (natural protein) MDLDPNAIITAGALIGGGLIMGGGAIGAGIGDGIAGNALISGIARQPEAQGRLFTPFFITVGLVEAAYFINLAFMALFVFATPGLQ	binds	9	binds	–	–
M. smegmatis ATP synthase subunit ε (natural protein) MADLNVEIVAVERELWSGPATFVFTRTTAGEIGILPRHIPLVAQLVDDAMVRVEREGEDDLRIAVDGGFLSVTEETVRILVENAQFESEIDADAAKEDAASDDERTAAWGRARLRALGQID	binds	–	–	–	–
B1	–	–	–	binds	–
M. smegmatis ATP synthase subunit γ (natural protein) MAATLRELRGRIRSAGSIKKITKAQELIATSRIAKAQARVEAARPYAAEITNMLTELAGASALDHPLLVERKQPKRAGVLVVSSDRGLCGAYNANVLRRAEELFSLLRDEGKDPVLYVVGRKALGYFSFRQRTVVESWTGFSERPTYENAREIADTLVNAFMAGADDEGDDAGADGILGVDELHIVFTEFRSMLSQTAVARRAAPMEVEYVGEVETGPRTLYSFEPDPETLFDALLPRYIATRVYAALLEAAASESASRRRAMKSATDNADDLIKALTLAANRERQAQITQEISEIVGGANALAGSK	binds	–	–	binds	–
B2	binds	–	–	binds	–
B3	binds	–	–	–	binds
M. smegmatis ATP synthase subunit b′ (natural protein) MGEFSATILAASQAAEEGGGGSNFLIPNGTFFAVLIIFLIVLGVISKWVVPPISKVLAEREAMLAKTAADNRKSAEQVAAAQADYEKEMAEARAQASALRDEARAAGRSVVDEKRAQASGEVAQTLTQADQQLSAQGDQVRSGLESSVDGLSAKLASRILGVDVNSGGTQ	binds	–	binds	–	–

— doi:10.1101/2020.08.06.225375 (bioRxiv, 2020)
